Data from patent publication US20230250154A1.

B1: Variant A2M, bait region SEQ ID NO 124, P01023 24-1474 (protein)
chain: SVSGKPQYMVLVPSLLHTETTEKGCVLLSYLNETVTVSASLESVRGNRSLFTDLEAENDVLHCVAFAVPKSSSNEEVMFLTVQVKGPTQEFKKRTTVMVKNEDSLVFVQTDKSIYKPGQTVKFRVVSMDENFHPLNELIPLVYIQDPKGNRIAQWQSFQLEGGLKQFSFPLSSEPFQGSYKVVVQKKSGGRTEHPFTVEEFVLPKFEVQVTVPKIITILEEEMNVSVCGLYTYGKPVPGHVTVSICRKYSDASDCHGEDSQAFCEKFSGQLNSHGCFYQQVKTKVFQLKRKEYEMKLHTEAQIQEEGTVVELTGRQSSEITRTITKLSFVKVDSHFRQGIPFFGQVRLVDGKGVPIPNKVIFIRGNEANYYSNATTDEHGLVQFSINTTNVMGTSLTVRVNYKDRSPCYGYQWVSEEHEEAHHTAYLVFSPSKSFVHLEPMSHELPCGHTQTVQAHYILNGGTLLGLKKLSFYYLIMAKGGIVRTGTHGLLVKQEDMKGHFSISIPVKSDIAPVARLLIYAVLPTGDVIGDSAKYDVENCLANKVDLSFSPSQSLPASHAHLRVTAAPQSVCALRAVDQSVLLMKPDAELSASSVYNLLPEKDLTGFPGPLNDQDDEDCINRHNVYINGITYTPVSSTNEKDMYSFLEDMGLKAFTNSKIRKPKMCPQLEQYEMHGPKEEEGLGSSELEGRGSEAIPMSIPTIPENFFGVVEEPHTKLRKYFPETWIWDLVVVNSAGVAEVGVTVPDTITEWKAGAFCLSEDAGLGISSTASLRAFQPFFVELTMPYSVIRGEAFTLKATVLNYLPKCIRVSVQLEASPAFLAVPVEKEQAPHCICANGRQTVSWAVTPKSLGNVNFTVSAEALESQELCGTEVPSVPEHGRKDTVIKPLLVEPEGLEKETTFNSLLCPSGGEVSEELSLKLPPNVVEESARASVSVLGDILGSAMQNTQNLLQMPYGCGEQNMVLFAPNIYVLDYLNETQQLTPEIKSKAIGYLNTGYQRQLNYKHYDGSYSTFGERYGRNQGNTWLTAFVLKTFAQARAYIFIDEAHITQALIWLSQRQKDNGCFRSSGSLLNNAIKGGVEDEVTLSAYITIALLEIPLTVTHPVVRNALFCLESAWKTAQEGDHGSHVYTKALLAYAFALAGNQDKRKEVLKSLNEEAVKKDNSVHWERPQKPKAPVGHFYEPQAPSAEVEMTSYVLLAYLTAQPAPTSEDLTSATNIVKWITKQQNAQGGFSSTQDTVVALHALSKYGAATFTRTGKAAQVTIQSSGTFSSKFQVDNNNRLLLQQVSLPELPGEYSMKVTGEGCVYLQTSLKYNILPEKEEFPFALGVQTLPQTCDEPKAHTSFQISLSVSYTGSRSASNMAIVDVKMVSGFIPLKPTVKMLERSNHVSRTEVSSNHVLIYLDKVSNQTLSLFFTVLQDVPVRDLKPAIVKVYDYYETDEFAIAEYNAPCSKDLGNADYKDDDDKGASHHHHHH
B2: Variant A2M, bait region SEQ ID NO 125, P01023 24-1474 (protein)
chain: SVSGKPQYMVLVPSLLHTETTEKGCVLLSYLNETVTVSASLESVRGNRSLFTDLEAENDVLHCVAFAVPKSSSNEEVMFLTVQVKGPTQEFKKRTTVMVKNEDSLVFVQTDKSIYKPGQTVKFRVVSMDENFHPLNELIPLVYIQDPKGNRIAQWQSFQLEGGLKQFSFPLSSEPFQGSYKVVVQKKSGGRTEHPFTVEEFVLPKFEVQVTVPKIITILEEEMNVSVCGLYTYGKPVPGHVTVSICRKYSDASDCHGEDSQAFCEKFSGQLNSHGCFYQQVKTKVFQLKRKEYEMKLHTEAQIQEEGTVVELTGRQSSEITRTITKLSFVKVDSHFRQGIPFFGQVRLVDGKGVPIPNKVIFIRGNEANYYSNATTDEHGLVQFSINTTNVMGTSLTVRVNYKDRSPCYGYQWVSEEHEEAHHTAYLVFSPSKSFVHLEPMSHELPCGHTQTVQAHYILNGGTLLGLKKLSFYYLIMAKGGIVRTGTHGLLVKQEDMKGHFSISIPVKSDIAPVARLLIYAVLPTGDVIGDSAKYDVENCLANKVDLSFSPSQSLPASHAHLRVTAAPQSVCALRAVDQSVLLMKPDAELSASSVYNLLPEKDLTGFPGPLNDQDDEDCINRHNVYINGITYTPVSSTNEKDMYSFLEDMGLKAFTNSKIRKPKMCPQLEQYEMHGPSELEGRGSIPENFFGVEAIPMSIPTSEDLVVQIVEEPHTKLRKYFPETWIWDLVVVNSAGVAEVGVTVPDTITEWKAGAFCLSEDAGLGISSTASLRAFQPFFVELTMPYSVIRGEAFTLKATVLNYLPKCIRVSVQLEASPAFLAVPVEKEQAPHCICANGRQTVSWAVTPKSLGNVNFTVSAEALESQELCGTEVPSVPEHGRKDTVIKPLLVEPEGLEKETTFNSLLCPSGGEVSEELSLKLPPNVVEESARASVSVLGDILGSAMQNTQNLLQMPYGCGEQNMVLFAPNIYVLDYLNETQQLTPEIKSKAIGYLNTGYQRQLNYKHYDGSYSTFGERYGRNQGNTWLTAFVLKTFAQARAYIFIDEAHITQALIWLSQRQKDNGCFRSSGSLLNNAIKGGVEDEVTLSAYITIALLEIPLTVTHPVVRNALFCLESAWKTAQEGDHGSHVYTKALLAYAFALAGNQDKRKEVLKSLNEEAVKKDNSVHWERPQKPKAPVGHFYEPQAPSAEVEMTSYVLLAYLTAQPAPTSEDLTSATNIVKWITKQQNAQGGFSSTQDTVVALHALSKYGAATFTRTGKAAQVTIQSSGTFSSKFQVDNNNRLLLQQVSLPELPGEYSMKVTGEGCVYLQTSLKYNILPEKEEFPFALGVQTLPQTCDEPKAHTSFQISLSVSYTGSRSASNMAIVDVKMVSGFIPLKPTVKMLERSNHVSRTEVSSNHVLIYLDKVSNQTLSLFFTVLQDVPVRDLKPAIVKVYDYYETDEFAIAEYNAPCSKDLGNADYKDDDDKGASHHHHHH
B3: Variant A2M, bait region SEQ ID NO 126, P01023 24-1474 (protein)
chain: SVSGKPQYMVLVPSLLHTETTEKGCVLLSYLNETVTVSASLESVRGNRSLFTDLEAENDVLHCVAFAVPKSSSNEEVMFLTVQVKGPTQEFKKRTTVMVKNEDSLVFVQTDKSIYKPGQTVKFRVVSMDENFHPLNELIPLVYIQDPKGNRIAQWQSFQLEGGLKQFSFPLSSEPFQGSYKVVVQKKSGGRTEHPFTVEEFVLPKFEVQVTVPKIITILEEEMNVSVCGLYTYGKPVPGHVTVSICRKYSDASDCHGEDSQAFCEKFSGQLNSHGCFYQQVKTKVFQLKRKEYEMKLHTEAQIQEEGTVVELTGRQSSEITRTITKLSFVKVDSHFRQGIPFFGQVRLVDGKGVPIPNKVIFIRGNEANYYSNATTDEHGLVQFSINTTNVMGTSLTVRVNYKDRSPCYGYQWVSEEHEEAHHTAYLVFSPSKSFVHLEPMSHELPCGHTQTVQAHYILNGGTLLGLKKLSFYYLIMAKGGIVRTGTHGLLVKQEDMKGHFSISIPVKSDIAPVARLLIYAVLPTGDVIGDSAKYDVENCLANKVDLSFSPSQSLPASHAHLRVTAAPQSVCALRAVDQSVLLMKPDAELSASSVYNLLPEKDLTGFPGPLNDQDDEDCINRHNVYINGITYTPVSSTNEKDMYSFLEDMGLKAFTNSKIRKPKMCPQLEQYEMHGPEGEGEGEGIPENFFGVSEDLVVQISELEGRGSVEEPHTKLRKYFPETWIWDLVVVNSAGVAEVGVTVPDTITEWKAGAFCLSEDAGLGISSTASLRAFQPFFVELTMPYSVIRGEAFTLKATVLNYLPKCIRVSVQLEASPAFLAVPVEKEQAPHCICANGRQTVSWAVTPKSLGNVNFTVSAEALESQELCGTEVPSVPEHGRKDTVIKPLLVEPEGLEKETTFNSLLCPSGGEVSEELSLKLPPNVVEESARASVSVLGDILGSAMQNTQNLLQMPYGCGEQNMVLFAPNIYVLDYLNETQQLTPEIKSKAIGYLNTGYQRQLNYKHYDGSYSTFGERYGRNQGNTWLTAFVLKTFAQARAYIFIDEAHITQALIWLSQRQKDNGCFRSSGSLLNNAIKGGVEDEVTLSAYITIALLEIPLTVTHPVVRNALFCLESAWKTAQEGDHGSHVYTKALLAYAFALAGNQDKRKEVLKSLNEEAVKKDNSVHWERPQKPKAPVGHFYEPQAPSAEVEMTSYVLLAYLTAQPAPTSEDLTSATNIVKWITKQQNAQGGFSSTQDTVVALHALSKYGAATFTRTGKAAQVTIQSSGTFSSKFQVDNNNRLLLQQVSLPELPGEYSMKVTGEGCVYLQTSLKYNILPEKEEFPFALGVQTLPQTCDEPKAHTSFQISLSVSYTGSRSASNMAIVDVKMVSGFIPLKPTVKMLERSNHVSRTEVSSNHVLIYLDKVSNQTLSLFFTVLQDVPVRDLKPAIVKVYDYYETDEFAIAEYNAPCSKDLGNADYKDDDDKGASHHHHHH
B4: Variant A2M, bait region SEQ ID NO 127, P01023 24-1474 (protein)
chain: SVSGKPQYMVLVPSLLHTETTEKGCVLLSYLNETVTVSASLESVRGNRSLFTDLEAENDVLHCVAFAVPKSSSNEEVMFLTVQVKGPTQEFKKRTTVMVKNEDSLVFVQTDKSIYKPGQTVKFRVVSMDENFHPLNELIPLVYIQDPKGNRIAQWQSFQLEGGLKQFSFPLSSEPFQGSYKVVVQKKSGGRTEHPFTVEEFVLPKFEVQVTVPKIITILEEEMNVSVCGLYTYGKPVPGHVTVSICRKYSDASDCHGEDSQAFCEKFSGQLNSHGCFYQQVKTKVFQLKRKEYEMKLHTEAQIQEEGTVVELTGRQSSEITRTITKLSFVKVDSHFRQGIPFFGQVRLVDGKGVPIPNKVIFIRGNEANYYSNATTDEHGLVQFSINTTNVMGTSLTVRVNYKDRSPCYGYQWVSEEHEEAHHTAYLVFSPSKSFVHLEPMSHELPCGHTQTVQAHYILNGGTLLGLKKLSFYYLIMAKGGIVRTGTHGLLVKQEDMKGHFSISIPVKSDIAPVARLLIYAVLPTGDVIGDSAKYDVENCLANKVDLSFSPSQSLPASHAHLRVTAAPQSVCALRAVDQSVLLMKPDAELSASSVYNLLPEKDLTGFPGPLNDQDDEDCINRHNVYINGITYTPVSSTNEKDMYSFLEDMGLKAFTNSKIRKPKMCPQLEQYEMHGPIPENFFGVSELEGRGSEAIPMSIPTEGEGEGEGVEEPHTKLRKYFPETWIWDLVVVNSAGVAEVGVTVPDTITEWKAGAFCLSEDAGLGISSTASLRAFQPFFVELTMPYSVIRGEAFTLKATVLNYLPKCIRVSVQLEASPAFLAVPVEKEQAPHCICANGRQTVSWAVTPKSLGNVNFTVSAEALESQELCGTEVPSVPEHGRKDTVIKPLLVEPEGLEKETTFNSLLCPSGGEVSEELSLKLPPNVVEESARASVSVLGDILGSAMQNTQNLLQMPYGCGEQNMVLFAPNIYVLDYLNETQQLTPEIKSKAIGYLNTGYQRQLNYKHYDGSYSTFGERYGRNQGNTWLTAFVLKTFAQARAYIFIDEAHITQALIWLSQRQKDNGCFRSSGSLLNNAIKGGVEDEVTLSAYITIALLEIPLTVTHPVVRNALFCLESAWKTAQEGDHGSHVYTKALLAYAFALAGNQDKRKEVLKSLNEEAVKKDNSVHWERPQKPKAPVGHFYEPQAPSAEVEMTSYVLLAYLTAQPAPTSEDLTSATNIVKWITKQQNAQGGFSSTQDTVVALHALSKYGAATFTRTGKAAQVTIQSSGTFSSKFQVDNNNRLLLQQVSLPELPGEYSMKVTGEGCVYLQTSLKYNILPEKEEFPFALGVQTLPQTCDEPKAHTSFQISLSVSYTGSRSASNMAIVDVKMVSGFIPLKPTVKMLERSNHVSRTEVSSNHVLIYLDKVSNQTLSLFFTVLQDVPVRDLKPAIVKVYDYYETDEFAIAEYNAPCSKDLGNADYKDDDDKGASHHHHHH

Each binder was assayed against Protease Mixtures (assay: cell-based or functional assay).

In order of rising Protease Inhibition (% of WT); Protease Mixtures, IGD Substrate:
1. B2  150 % of WT
2. B3  229 % of WT
3. B4  229 % of WT
4. B1  237 % of WT

In order of rising Protease Inhibition (% of WT); Protease Mixtures, Collagen Substrate:
1. B4  180 % of WT
2. B3  250 % of WT
